How the values were obtained:
Test in all cases: flow cytometry on CHO-K1 transfectants, right sub-column
Q15A = biological target: T1, Q15A
T1 construct: also called hCD27 Q15A
T1 receptor chain: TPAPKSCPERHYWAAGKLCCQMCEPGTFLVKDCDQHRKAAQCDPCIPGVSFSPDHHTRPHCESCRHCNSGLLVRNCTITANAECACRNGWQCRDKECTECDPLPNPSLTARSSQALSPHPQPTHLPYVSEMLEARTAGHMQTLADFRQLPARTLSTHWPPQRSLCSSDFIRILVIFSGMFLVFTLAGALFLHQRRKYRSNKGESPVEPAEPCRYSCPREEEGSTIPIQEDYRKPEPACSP
Experimental: (§1) The hCD27 variants that were tested are listed. Amino acids correspond to the UniProt P26842-1 sequence. Amino acids 1-20 constitute the signal peptide. Binding is expressed as the geometric mean of the FITC signal, relative to antibody binding to hCD27, which was set at 100%.
(§2) The ability of several anti-hCD27 antibodies to bind to a series of hCD27 alanine mutants was determined using CHO-K1 cells, transiently transfected pCI-neo empty vector, pCI-neo.hCD27 and several pCI-neo.CD27Ala mutant constructs.
(§3) Detached cells were transferred to 96 wells round-bottomed well plates at approximately 1.2×10⁵ cells/well. After spinning down the cells, discarding the supernatants and re-suspending the cells in the residual volume, the primary antibodies were added and incubated for 30 minutes at 4° C. Cells were washed three times with DPBS/BSA 1%, followed by centrifugation, discarding of the supernatants and re-suspension in the residual volume. […] After washing once, antibody binding was detected using the HTS plate reader (FACS Canto II) and FlowJo software for data analysis. Debris, dead cells and doublets were excluded from the analysis. Binding was expressed as the geometric mean of the FITC signal, relative to antibody binding to hCD27, which was set at 100%.

V30A = biological target: T2, V30A
T2 construct: also called hCD27 V30A
T2 receptor chain: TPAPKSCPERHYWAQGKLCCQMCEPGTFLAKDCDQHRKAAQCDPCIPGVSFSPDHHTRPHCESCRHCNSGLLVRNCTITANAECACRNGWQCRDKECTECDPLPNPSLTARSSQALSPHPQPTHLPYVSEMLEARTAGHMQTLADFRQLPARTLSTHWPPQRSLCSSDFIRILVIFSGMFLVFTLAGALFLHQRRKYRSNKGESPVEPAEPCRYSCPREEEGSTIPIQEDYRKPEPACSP
Experimental: as §1, §2, §3

D32A = biological target: T3, D32A
T3 construct: also called hCD27 D32A
T3 receptor chain: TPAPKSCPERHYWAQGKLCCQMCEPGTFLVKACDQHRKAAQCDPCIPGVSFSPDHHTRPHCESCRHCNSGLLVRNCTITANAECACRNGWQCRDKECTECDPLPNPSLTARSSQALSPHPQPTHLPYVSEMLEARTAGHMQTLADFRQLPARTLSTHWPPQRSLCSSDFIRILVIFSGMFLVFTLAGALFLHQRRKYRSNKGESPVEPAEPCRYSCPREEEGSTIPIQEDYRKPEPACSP
Experimental: as §1, §2, §3

D43A = biological target: T4, D43A
T4 construct: also called hCD27 D43A
T4 receptor chain: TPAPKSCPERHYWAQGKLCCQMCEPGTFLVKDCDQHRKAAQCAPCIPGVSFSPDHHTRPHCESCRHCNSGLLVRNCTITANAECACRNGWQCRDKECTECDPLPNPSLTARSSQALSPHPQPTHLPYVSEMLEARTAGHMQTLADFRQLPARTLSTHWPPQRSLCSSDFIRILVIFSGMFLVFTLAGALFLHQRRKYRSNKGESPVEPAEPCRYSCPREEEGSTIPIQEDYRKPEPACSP
Experimental: as §1, §2, §3

I46A = biological target: T5, I46A
T5 construct: also called hCD27 I46A
T5 receptor chain: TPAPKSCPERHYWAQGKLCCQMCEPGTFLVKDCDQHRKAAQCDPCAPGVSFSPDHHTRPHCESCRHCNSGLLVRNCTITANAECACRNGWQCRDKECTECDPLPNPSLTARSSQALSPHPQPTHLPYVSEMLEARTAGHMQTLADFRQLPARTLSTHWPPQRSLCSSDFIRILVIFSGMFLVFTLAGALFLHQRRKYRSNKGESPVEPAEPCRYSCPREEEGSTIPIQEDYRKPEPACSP
Experimental: as §1, §2, §3

V49A = biological target: T6, V49A
T6 construct: also called hCD27 V49A
T6 receptor chain: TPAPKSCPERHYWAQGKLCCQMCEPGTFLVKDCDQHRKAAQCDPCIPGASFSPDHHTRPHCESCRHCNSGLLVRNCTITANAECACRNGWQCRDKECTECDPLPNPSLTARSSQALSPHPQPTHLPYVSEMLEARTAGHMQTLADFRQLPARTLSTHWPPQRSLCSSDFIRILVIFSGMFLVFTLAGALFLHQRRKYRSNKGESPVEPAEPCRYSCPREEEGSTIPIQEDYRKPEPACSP
Experimental: as §1, §2, §3

S63A = biological target: T7, S63A
T7 construct: also called hCD27 S63A
T7 receptor chain: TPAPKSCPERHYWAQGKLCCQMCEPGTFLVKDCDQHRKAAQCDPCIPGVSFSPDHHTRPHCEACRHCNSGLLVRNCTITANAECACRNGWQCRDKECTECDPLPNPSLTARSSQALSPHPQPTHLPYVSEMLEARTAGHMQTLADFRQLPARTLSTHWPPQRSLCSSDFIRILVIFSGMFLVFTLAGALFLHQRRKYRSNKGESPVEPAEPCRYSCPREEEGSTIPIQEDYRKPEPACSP
Experimental: as §1, §2, §3

N88A = biological target: T8, N88A
T8 construct: also called hCD27 N88A
T8 receptor chain: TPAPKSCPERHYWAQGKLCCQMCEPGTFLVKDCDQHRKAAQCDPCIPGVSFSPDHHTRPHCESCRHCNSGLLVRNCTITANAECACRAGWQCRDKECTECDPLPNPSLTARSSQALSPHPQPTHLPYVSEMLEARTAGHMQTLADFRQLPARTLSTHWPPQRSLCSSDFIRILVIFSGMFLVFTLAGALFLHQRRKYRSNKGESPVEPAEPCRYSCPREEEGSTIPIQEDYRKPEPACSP
Experimental: as §1, §2, §3

R93A = biological target: T9, R93A
T9 construct: also called hCD27 R93A
T9 receptor chain: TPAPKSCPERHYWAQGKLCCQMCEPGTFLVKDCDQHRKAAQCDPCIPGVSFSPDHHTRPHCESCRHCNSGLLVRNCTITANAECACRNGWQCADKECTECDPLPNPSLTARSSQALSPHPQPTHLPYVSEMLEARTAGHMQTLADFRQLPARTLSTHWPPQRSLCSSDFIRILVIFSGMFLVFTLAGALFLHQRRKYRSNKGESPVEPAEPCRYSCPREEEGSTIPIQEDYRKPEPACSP
Experimental: as §1, §2, §3

W13A = biological target: T10, W13A
T10 construct: also called hCD27 W13A
T10 receptor chain: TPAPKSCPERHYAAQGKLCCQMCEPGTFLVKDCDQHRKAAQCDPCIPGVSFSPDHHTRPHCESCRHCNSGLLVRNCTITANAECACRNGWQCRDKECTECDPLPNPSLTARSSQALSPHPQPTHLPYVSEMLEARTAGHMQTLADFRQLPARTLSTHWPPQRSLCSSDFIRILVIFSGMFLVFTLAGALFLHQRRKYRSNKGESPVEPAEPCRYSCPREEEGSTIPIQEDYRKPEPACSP
Experimental: as §1, §2, §3

B1: hCD27.131A (mouse parental 131A) (antibody, mouse IgG1, V domains shown)
VH: QIQLVQSGPELKKPGETVKISCKASGYTFTNYGMNWVKQAPGKGLKWMGWINTNTGEPTYAEEFKGRFAFSLETSATTAYLQINNLKNEDTATYFCAREGDAMDYWGQGTSVTVSS
VL: QIVLTQSPAIMSASPGEKVTMTCSASSSVSYMHWYQQKSGTSPKRWIYDTSKLASGVPARFSGSGSGTSYSLTISSMEAEDAATYYCQQWNSYPFTFGSGTKLEIK
notes: Mouse IgG1 antibody; also called mouse hCD27.131A
binding, WT hCD27 = 100 (GM FITC) (Q15A): 136%
binding, WT hCD27 = 100 (GM FITC) (V30A): 94%
binding, WT hCD27 = 100 (GM FITC) (D32A): 62.1%
binding, WT hCD27 = 100 (GM FITC) (D43A): 96.2%
binding, WT hCD27 = 100 (GM FITC) (I46A): 75%
binding, WT hCD27 = 100 (GM FITC) (V49A): 99.8%
binding, WT hCD27 = 100 (GM FITC) (S63A): 141%
binding, WT hCD27 = 100 (GM FITC) (N88A): 124%
binding, WT hCD27 = 100 (GM FITC) (R93A): 90%
binding, WT hCD27 = 100 (GM FITC) (W13A): 88.6%

From patent US20180086841A1 (Merck Sharp & Dohme, published 2018)
